Source: patent publication US20260116980A1

Target: B7H3 on H358 tumor cells (UniProt Q5ZPR3)
Experiment: FACS on H358 cells, 1 h on ice, fluorescence-labelled anti-human Fc

Sequence of B7H3 on H358 tumor cells (Q5ZPR3 29-534): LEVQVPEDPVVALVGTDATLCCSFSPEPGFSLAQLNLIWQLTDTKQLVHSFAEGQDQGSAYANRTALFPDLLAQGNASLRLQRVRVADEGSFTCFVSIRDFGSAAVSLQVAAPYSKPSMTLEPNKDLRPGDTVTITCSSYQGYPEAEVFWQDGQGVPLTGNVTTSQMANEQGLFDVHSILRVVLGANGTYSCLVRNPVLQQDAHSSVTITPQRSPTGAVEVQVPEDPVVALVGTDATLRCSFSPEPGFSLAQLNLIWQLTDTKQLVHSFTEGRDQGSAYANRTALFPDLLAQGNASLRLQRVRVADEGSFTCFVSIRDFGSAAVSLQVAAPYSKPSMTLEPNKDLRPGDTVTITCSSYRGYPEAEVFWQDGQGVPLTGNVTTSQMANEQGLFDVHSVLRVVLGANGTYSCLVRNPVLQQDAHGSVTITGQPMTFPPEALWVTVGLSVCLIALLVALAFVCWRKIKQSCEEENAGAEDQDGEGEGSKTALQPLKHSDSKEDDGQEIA

EC50 (read off the curve): 1 nM
Substance: MABX-9001a (a humanized anti-B7H3 IgG1 monoclonal antibody used for DS-7300a)
